According to patent US20260022175A1 (Chugai, published 2026):

Legend:
[1] = target: T1, hCTLA4-His-BAP (human CTLA4 extracellular region with C-terminal His-tag and BAP-tag) (human, biotin on the BAP-tag); assay: SPR 37C, ATP 10 µM; ATP 10 µM
T1 construct: also called hCTLA4-His-Biotin

[2] = target: T1, hCTLA4-His-BAP (human CTLA4 …); assay: SPR 37C, ATP 100 µM; ATP 100 µM
[3] = target: T1, hCTLA4-His-BAP (human CTLA4 …); assay: SPR 37C, hCTLA4 1000 nM, no ATP; no ATP; binding amount at 1000 nM hCTLA4
[4] = target: T1, hCTLA4-His-BAP (human CTLA4 …); assay: SPR 37C, hCTLA4 1000 nM, ATP 1 µM; ATP 1 µM; binding amount at 1000 nM hCTLA4
[5] = target: T1, hCTLA4-His-BAP (human CTLA4 …); assay: SPR 37C, hCTLA4 1000 nM, ATP 10 µM; ATP 10 µM; binding amount at 1000 nM hCTLA4
[6] = target: T1, hCTLA4-His-BAP (human CTLA4 …); assay: SPR 37C, hCTLA4 1000 nM, ATP 100 µM; ATP 100 µM; binding amount at 1000 nM hCTLA4
[7] = target: T2, human C1q protein (Calbiochem) (human, UniProt P02745 23-245; P02746 28-253; P02747 29-245); assay: ELISA, antibody on the plate, hC1q 3 µg/mL
T2 construct: bought; also called hC1q
T2 sequence (P02745 23-245 limits assumed, chain 1 of 3): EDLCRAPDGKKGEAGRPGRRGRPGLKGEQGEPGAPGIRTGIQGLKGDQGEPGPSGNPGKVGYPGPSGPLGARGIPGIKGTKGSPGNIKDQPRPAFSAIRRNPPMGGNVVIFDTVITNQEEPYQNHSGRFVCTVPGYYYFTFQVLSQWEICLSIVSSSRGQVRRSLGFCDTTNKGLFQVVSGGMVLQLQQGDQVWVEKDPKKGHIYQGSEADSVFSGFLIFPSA
T2 sequence (P02746 28-253 limits assumed, chain 2 of 3): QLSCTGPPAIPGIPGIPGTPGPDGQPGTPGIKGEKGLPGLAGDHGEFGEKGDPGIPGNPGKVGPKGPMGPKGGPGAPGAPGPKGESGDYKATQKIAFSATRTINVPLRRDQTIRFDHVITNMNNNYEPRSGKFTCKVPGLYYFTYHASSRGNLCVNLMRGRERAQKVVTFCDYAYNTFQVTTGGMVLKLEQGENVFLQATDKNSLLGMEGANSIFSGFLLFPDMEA
T2 sequence (P02747 29-245 limits assumed, chain 3 of 3): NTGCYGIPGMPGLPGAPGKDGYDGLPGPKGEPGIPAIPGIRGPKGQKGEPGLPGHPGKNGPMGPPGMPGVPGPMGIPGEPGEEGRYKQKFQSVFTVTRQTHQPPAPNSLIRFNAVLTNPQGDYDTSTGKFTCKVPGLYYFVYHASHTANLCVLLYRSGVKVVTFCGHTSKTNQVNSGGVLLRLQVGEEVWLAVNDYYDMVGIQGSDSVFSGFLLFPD

T1 sequence (chain, as listed by the source limits assumed): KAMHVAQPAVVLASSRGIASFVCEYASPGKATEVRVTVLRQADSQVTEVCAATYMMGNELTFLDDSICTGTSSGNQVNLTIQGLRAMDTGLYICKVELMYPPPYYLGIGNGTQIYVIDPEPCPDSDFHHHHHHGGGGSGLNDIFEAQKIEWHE

B1: 04H1077-G1m/04L1041-lam1 (antibody, human IgG1, lambda, V domains shown)
VH: EVQLVESGGDLVKPGGGLRLSCAASGFTFSSRTMNWVRQAPGKGLEWVSSISTRSGYIYYAESVKGRFTISRDNAKNSLYLQMNSLRAEDTAVYYCARYGKREDMLWVFDYWGQGTLVTVSS
VL: QSALTQPPSASGSPGQTVTISCDGPSTDVGDYNYVHWYQQHPGKAPKLMIYFTSKKPSGVPDRFSGSKSGNTASLTVSGLQAEDEADYFCSTYAAPLGPMFGGGTKLTVLG
Kd [1]: 730 nM
Kd [2]: 140 nM
Binding to Human CTLA4 [3]: 0.006 per unit amount of antibody
Binding to Human CTLA4 [4]: 0.023 per unit amount of antibody
Binding to Human CTLA4 [5]: 0.094 per unit amount of antibody
Binding to Human CTLA4 [6]: 0.172 per unit amount of antibody

B2: 04H1077-G1m/04L1067-lam1 (antibody, human IgG1, lambda, V domains shown)
VH: EVQLVESGGDLVKPGGGLRLSCAASGFTFSSRTMNWVRQAPGKGLEWVSSISTRSGYIYYAESVKGRFTISRDNAKNSLYLQMNSLRAEDTAVYYCARYGKREDMLWVFDYWGQGTLVTVSS
VL: QSALTQPPSASGSPGQTVTISCDGPSTGVGDYNYVHWYQQHPGKAPKLMIYFTSKKPSGVPDRFSGSKSGNTASLTVSGLQAEDEADYFCSTYAAPLGPMFGGGTKLTVLG
Kd [1]: 400 nM
Kd [2]: 76 nM
Binding to Human CTLA4 [3]: 0.012 per unit amount of antibody
Binding to Human CTLA4 [4]: 0.041 per unit amount of antibody
Binding to Human CTLA4 [5]: 0.131 per unit amount of antibody
Binding to Human CTLA4 [6]: 0.192 per unit amount of antibody

B3: 04H1077-G1m/04L1086-lam1 (antibody, human IgG1, lambda, V domains shown)
VH: EVQLVESGGDLVKPGGGLRLSCAASGFTFSSRTMNWVRQAPGKGLEWVSSISTRSGYIYYAESVKGRFTISRDNAKNSLYLQMNSLRAEDTAVYYCARYGKREDMLWVFDYWGQGTLVTVSS
VL: QSALTQPPSASGSPGQTVTISCDGPSTGVGDYNYVHWYQQHPGKAPKLMIYFTSKKPSGVPDRFSGSKSGNTASLTVSGLQAEDEADYFCQTYAAPLGPMFGGGTKLTVLG
Kd [1]: 690 nM
Kd [2]: 110 nM
Binding to Human CTLA4 [3]: 0.01 per unit amount of antibody
Binding to Human CTLA4 [4]: 0.031 per unit amount of antibody
Binding to Human CTLA4 [5]: 0.106 per unit amount of antibody
Binding to Human CTLA4 [6]: 0.181 per unit amount of antibody

B4: 04H1207-G1m/04L1086-lam1 (antibody, human IgG1, lambda, V domains shown)
VH: EVQLVESGGGLVKPGGSLRLSCAASGFTFSSKTMNWVRQAPGKGLEWVSSISTRSGYIYYAESVKGRFTISRDNAKNSLYLQMNSLRAEDTAVYYCARYGKREDMLWVFDYWGQGTLVTVSS
VL: QSALTQPPSASGSPGQTVTISCDGPSTGVGDYNYVHWYQQHPGKAPKLMIYFTSKKPSGVPDRFSGSKSGNTASLTVSGLQAEDEADYFCQTYAAPLGPMFGGGTKLTVLG
Kd [1]: 330 nM
Kd [2]: 59 nM
Binding to Human CTLA4 [3]: 0.013 per unit amount of antibody
Binding to Human CTLA4 [4]: 0.047 per unit amount of antibody
Binding to Human CTLA4 [5]: 0.137 per unit amount of antibody
Binding to Human CTLA4 [6]: 0.196 per unit amount of antibody

B5: 04H1208-G1m/04L1086-lam1 (antibody, human IgG1, lambda, V domains shown)
VH: EVQLVESGGGLVKPGGSLRLSCAASGFTFSSKTMNWVRQAPGKGLEWVSSISTRSGYIYYARSVKGRFTISRDNAKNSLYLQMNSLRAEDTAVYYCARYGKREDMLWVFDYWGQGTLVTVSS
VL: QSALTQPPSASGSPGQTVTISCDGPSTGVGDYNYVHWYQQHPGKAPKLMIYFTSKKPSGVPDRFSGSKSGNTASLTVSGLQAEDEADYFCQTYAAPLGPMFGGGTKLTVLG
Kd [1]: 450 nM
Kd [2]: 74 nM
Binding to Human CTLA4 [3]: 0.005 per unit amount of antibody
Binding to Human CTLA4 [4]: 0.03 per unit amount of antibody
Binding to Human CTLA4 [5]: 0.108 per unit amount of antibody
Binding to Human CTLA4 [6]: 0.17 per unit amount of antibody

B6: H240-Kn462/L73-k0//H240-Hl441/L73-k0 (antibody)
heavy 1: QDQLVQSGAEVKKPGASVKVSCKASGFNIKDTYIQWVRQAPGQGLEWMGRIDPLRKQTKYREKFEGRVTITADTSTNTAYMELSSLRSEDTAVYYCVRSGREFDYWGQGTLVTVSSASTKGPSVFPLAPSSKSTSGGTAALGCLVKDYFPEPVTVSWNSGALTSGVHTFPAVLQSSGLYSLSSVVTVPSSSLGTQTYICNVNHKPSNTKVDKKVEPKSCDKTHTCPPCPAPEFQWGPMVFLFPPKPKDVLMISRTPEVTCVVVDVSDEEPEVKFNWYVDGVEVHNAKTKPREEQYNATYRVVSVLPVLHQDWLNGKEYKCKVSNDALPAPIEKTISKAKGQPREPQVCTLPPSRDELTKNQVSLWCLVKGFYPSDIAVEWESNGQPENNYKTTPPVLDSDGSFFLYSKLTVDKSRWQQGNVFSCSVMHEALHNHYTQKSLSLSP
heavy 2: QDQLVQSGAEVKKPGASVKVSCKASGFNIKDTYIQWVRQAPGQGLEWMGRIDPLRKQTKYREKFEGRVTITADTSTNTAYMELSSLRSEDTAVYYCVRSGREFDYWGQGTLVTVSSASTKGPSVFPLAPSSKSTSGGTAALGCLVKDYFPEPVTVSWNSGALTSGVHTFPAVLQSSGLYSLSSVVTVPSSSLGTQTYICNVNHKPSNTKVDKKVEPKSCDKTHTCPPCPAPELLAGPSVFLFPPKPKDVLMISRTPEVTCVVVDVSHEEPEVKFNWYVDGVEVHNAKTKPREEQYNATYRVVSVLPVLHQDWLNGKEYKCKVSNDALPAPIEETISKAKGQPREPQVYTLPPSRCELTKNQVSLSCAVKGFYPSDIAVEWESNGQPENNYKTTPPVLDSDGSFFLVSKLTVDKSRWQQGNVFSCSVMHEALHNHYTQKSLSLSP
light: DIQMTQSPSSLSASVGDRVTITCRASQDIHKYIAWYQQKPGQAPRLLIQYTSTLQPGVPSRFSGSGSGTDYTFTISSLQPEDIATYYCLQYEQLRTFGGGTKVEIKRTVAAPSVFIFPPSDEQLKSGTASVVCLLNNFYPREAKVQWKVDNALQSGNSQESVTEQDSKDSTYSLSSTLTLSKADYEKHKVYACEVTHQGLSSPVTKSFNRGEC
notes: also called EGL-ART5; ART5; copies: 1 + 1 + 2
binding result [7]: binds

B7: H240-Kn443/L73-k0//H240-Hl408/L73-k0 (antibody)
heavy 1: QDQLVQSGAEVKKPGASVKVSCKASGFNIKDTYIQWVRQAPGQGLEWMGRIDPLRKQTKYREKFEGRVTITADTSTNTAYMELSSLRSEDTAVYYCVRSGREFDYWGQGTLVTVSSASTKGPSVFPLAPSSKSTSGGTAALGCLVKDYFPEPVTVSWNSGALTSGVHTFPAVLQSSGLYSLSSVVTVPSSSLGTQTYICNVNHKPSNTKVDKKVEPKSCDKTHTCPPCPAPEFQWGPMVFLFPPKPKDTLMISRTPEVTCVVVDVSDEEPEVKFNWYVDGVEVHNAKTKPREEQYNATYRVVSVLTVLHQDWLNGKEYKCKVSNDALPAPIEKTISKAKGQPREPQVCTLPPSRDELTKNQVSLWCLVKGFYPSDIAVEWESNGQPENNYKTTPPVLDSDGSFFLYSKLTVDKSRWQQGNVFSCSVMHEALHNHYTQKSLSLSP
heavy 2: QDQLVQSGAEVKKPGASVKVSCKASGFNIKDTYIQWVRQAPGQGLEWMGRIDPLRKQTKYREKFEGRVTITADTSTNTAYMELSSLRSEDTAVYYCVRSGREFDYWGQGTLVTVSSASTKGPSVFPLAPSSKSTSGGTAALGCLVKDYFPEPVTVSWNSGALTSGVHTFPAVLQSSGLYSLSSVVTVPSSSLGTQTYICNVNHKPSNTKVDKKVEPKSCDKTHTCPPCPAPELLAGPSVFLFPPKPKDTLMISRTPEVTCVVVDVSHEEPEVKFNWYVDGVEVHNAKTKPREEQYNATYRVVSVLTVLHQDWLNGKEYKCKVSNDALPAPIEETISKAKGQPREPQVYTLPPSRCELTKNQVSLSCAVKGFYPSDIAVEWESNGQPENNYKTTPPVLDSDGSFFLVSKLTVDKSRWQQGNVFSCSVMHEALHNHYTQKSLSLSP
light: DIQMTQSPSSLSASVGDRVTITCRASQDIHKYIAWYQQKPGQAPRLLIQYTSTLQPGVPSRFSGSGSGTDYTFTISSLQPEDIATYYCLQYEQLRTFGGGTKVEIKRTVAAPSVFIFPPSDEQLKSGTASVVCLLNNFYPREAKVQWKVDNALQSGNSQESVTEQDSKDSTYSLSSTLTLSKADYEKHKVYACEVTHQGLSSPVTKSFNRGEC
notes: also called EGL-ART3; ART3; copies: 1 + 1 + 2
binding result [7]: binds

B8: H240-Kn461/L73-k0//H240-Hl443/L73-k0 (antibody)
heavy 1: QDQLVQSGAEVKKPGASVKVSCKASGFNIKDTYIQWVRQAPGQGLEWMGRIDPLRKQTKYREKFEGRVTITADTSTNTAYMELSSLRSEDTAVYYCVRSGREFDYWGQGTLVTVSSASTKGPSVFPLAPSSKSTSGGTAALGCLVKDYFPEPVTVSWNSGALTSGVHTFPAVLQSSGLYSLSSVVTVPSSSLGTQTYICNVNHKPSNTKVDKKVEPKSCDKTHTCPPCPAPEFQWGPMVFLFPPKPKDVLMISRTPEVTCVVVDVSDEEPEVKFNWYVDGVEVHNAKTKPREEQYNATYRVVSVLPVLHQDWLNGKEYKCKVSNDALPAPEEKTISKAKGQPREPQVCTLPPSRDELTKNQVSLWCLVKGFYPSDIAVEWESNGQPENNYKTTPPVLDSDGSFFLYSKLTVDKSRWQQGNVFSCSVMHEALHNHYTQKSLSLSP
heavy 2: QDQLVQSGAEVKKPGASVKVSCKASGFNIKDTYIQWVRQAPGQGLEWMGRIDPLRKQTKYREKFEGRVTITADTSTNTAYMELSSLRSEDTAVYYCVRSGREFDYWGQGTLVTVSSASTKGPSVFPLAPSSKSTSGGTAALGCLVKDYFPEPVTVSWNSGALTSGVHTFPAVLQSSGLYSLSSVVTVPSSSLGTQTYICNVNHKPSNTKVDKKVEPKSCDKTHTCPPCPAPELLAGPSVFLFPPKPKDVLMISRTPEVTCVVVDVSHEEPEVKFNWYVDGVEVHNAKTKPREEQYNATYRVVSVLPVLHQDWLNGKEYKCKVSNDALPAPEEETISKAKGQPREPQVYTLPPSRCELTKNQVSLSCAVKGFYPSDIAVEWESNGQPENNYKTTPPVLDSDGSFFLVSKLTVDKSRWQQGNVFSCSVMHEALHNHYTQKSLSLSP
light: DIQMTQSPSSLSASVGDRVTITCRASQDIHKYIAWYQQKPGQAPRLLIQYTSTLQPGVPSRFSGSGSGTDYTFTISSLQPEDIATYYCLQYEQLRTFGGGTKVEIKRTVAAPSVFIFPPSDEQLKSGTASVVCLLNNFYPREAKVQWKVDNALQSGNSQESVTEQDSKDSTYSLSSTLTLSKADYEKHKVYACEVTHQGLSSPVTKSFNRGEC
notes: also called EGL-ART8; ART8; copies: 1 + 1 + 2
binding result [7]: binds
